The values that follow come from article PMC6258048 (Biochemical and biophysical research communications, 2014).

The labels stand for the following.
B2: Tcf3 (Transcription factor 3) DNA binding B-HLH domain (domain or fragment)
chain: MGHMVHRPWIQDEVLSLEEKDLRDRERRMANNARERVRVRDINEAFRELGRMCQLHLKSDKAQTKLLILQQAVQVILGLEQQVRERNLNPKAACGGRTRIVSAHNSENEL

The target in series [1] is T1, Tcf4 (Transcription factor 4) DNA binding B-HLH domain.
T1 chain: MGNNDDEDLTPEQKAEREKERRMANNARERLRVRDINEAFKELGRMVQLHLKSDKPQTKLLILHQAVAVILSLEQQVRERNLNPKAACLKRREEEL
Briefly: native gel or EMSA.

Series [2] has as its target B2. Briefly: native gel or EMSA.
For series [3], the target named is Tcf12 (Transcription factor 12) DNA binding B-HLH domain. As to the kind of experiment: native gel or EMSA.
The series “CD thermal denaturation” deals with the molecule itself. Briefly: CD thermal denaturation.

B1: Ascl1 (Achaete-scute homolog 1) DNA binding B-HLH domain (domain or fragment)
chain: MASGFGYSLPQQQPAAVARRNERERNRVKLVNLGFATLREHVPNGAANKKMSKVETLRSAVEYIRALQQLLDEHDAVSAAFQAGVLSPEL
Turning to B1, the binding result in series [1], in series [2] and in series [3] was “binds” each time.
On to B2, for which the binding result in “CD thermal denaturation” is “binds”.
